From patent US20160046723A1 (BIONOMICS, published 2016)
Positions count from the first letter of the chain named. Each block holds one binder with its values, some of them ahead of it.

Assays:
[1] = biological target: T1, recombinant human LGR4 ectodomain-IgG-Fc fusion (R&D Systems) (human, UniProt Q9BXB1 25-540, limits assumed); experiment: BLI (Octet QK), biotinylated antibody on streptavidin tips, LGR4-Fc in solution, 1:1 global fit
T1 construct: Bought construct; also called Human LGR4-Fc; LGR4-Fc; not shown: IgG Fc; detected with anti-human IgG Fc antibody
Procedure: (§1) Binding kinetics of LGR4 antibodies to human and mouse LGR4 were determined using label-free plate-based Octet QK instrument (Pall ForteBio, LLC, Menlo Park, Calif.) at 30 degrees. Biotinylated 1C5 and 8F3 LGR4 antibodies were diluted to 5 μg/mL in 1×PBS and immobilized on streptavidin tips (Pall ForteBio, LLC, Menlo Park, Calif.). Plate shaking speed was 1000 rpm. The antibodies were captured on the tips for 150 sec. To establish a baseline, the tips were transferred into wells containing binding buffer (1×PBS, supplemented with 0.1% bovine serum albumin and 0.05% Tween 20) for 60 sec. Human LGR4-Fc (R&D Systems) and mouse LGR4-Fc (R&D Systems) were diluted in binding buffer to 80 nM, 40 nM, 20 nM, 10 nM, 5 nM to make a concentration series. Additionally, a buffer-only well was used as reference. 1C5 and 8F3-coated tips were transferred into wells containing human LGR4 and mouse LGR4 dilution series for 180 sec to measure receptor association. The tips were then dipped into binding buffer for 300 sec to measure receptor dissociation.
(§2) Data were collected using ForteBio Data Acquisition software v7.1 and analyzed using ForteBio Data Analysis software v7.1. Data were referenced by subtracting signal from the buffer sample, and fitted to a 1:1 binding model using global fitting with unlinked Rmax. The experiment was repeated three times. Sample curve fits, kinetic rate constants, and KD for 1C5 and 8F3 LGR4 antibodies are shown below in Table 5.

[2] = biological target: T2, recombinant mouse LGR4 ectodomain-IgG-Fc fusion (R&D Systems) (mouse, UniProt A2ARI4 25-540, limits assumed); experiment: as above
T2 construct: extracellular domain; Bought construct; also called mouse LGR4-Fc; murine LGR4; not shown: IgG Fc
Procedure: as §1, §2

[3] = biological target: T1, recombinant human LGR4 …; experiment: BLI (Octet QK), biotinylated antibody on streptavidin tips, LGR4-Fc 5-80 nM in solution, 1:1 global fit, 30 degrees
Procedure: as §1, §2

[4] = biological target: T2, recombinant mouse LGR4 …; experiment: as above
Procedure: as §1, §2

[5] = biological target: T1, recombinant human LGR4 …; experiment: ELISA, plate coated with 0.5 ug/mL hLGR4-Fc, biotinylated antibody detected with streptavidin-HRP
Procedure: (§3) Binding of the anti-LGR4 antibodies to human and murine LGR4 was assessed in vitro using an ELISA-based plate binding assay. The assay measured biotinylated antibody binding to ELISA plate-bound purified recombinant, LGR4 ectodomain-IgG-Fc fusion, with detection of LGR4-bound antibody with horseradish peroxidase-conjugated streptavidin. […] Binding data from two of the antibodies, 8F3 and 1C5 are shown in FIGS. 5A and 5B, respectively.

[6] = biological target: T3, human LGR4 on the cell surface (recombinant on CHO cells; endogenous on HEK-293T cells) (human, UniProt Q9BXB1 25-951); experiment: flow cytometry on CHO-LGR4 cells, PE anti-rat IgG secondary
T3 construct: also called CHO-LGR4; GPR48
Procedure: (§4) A flow cytometry-based assay was used to measure the binding of purified anti-LGR4 antibodies 1C5 and 8F3 to recombinant human LGR4 protein overexpressed on the surface of CHO cells. CHO and CHO-LGR4 cells were stained with serial dilutions of anti-LGR4 antibodies at 4° C. Surface staining was detected with PE-conjugated anti-rat IgG secondary antibodies and analyzed on the FACSCalibur (FIG. 4A and FIG. 4B). […] An antibody control (pooled rat IgG) was used as a negative isotype control in these experiments as well as wild-type CHO without LGR4.

[7] = biological target: T2, recombinant mouse LGR4 …; experiment: ELISA, plate coated with 0.5 ug/mL mLGR4-Fc, biotinylated antibody detected with streptavidin-HRP
Procedure: as §3

[8] = biological target: T1, recombinant human LGR4 …; experiment: BLI (Octet QK), biotinylated antibody on streptavidin tips, LGR4-Fc in solution; exponent as printed (E+04), KD fits E-04
Procedure: as §1
as §2, with “Sample curve fits, kinetic rate constants, and KD for 1C5 and 8F3 LGR4 antibodies are shown below in Table 5.” left out

[9] = biological target: T3, human LGR4 on the cell surface …; experiment: flow cytometry on CHO-LGR4 cells, PE anti-rat IgG secondary [printed FIB. 4B]
Procedure: as §4

[10] = biological target: T1, recombinant human LGR4 …; experiment: BLI (Octet QK); receptor printed 'Human LGR4' a second time for 8F3, possibly mouse LGR4
Procedure: as §1
as §2, with “Sample curve fits, kinetic rate constants, and KD for 1C5 and 8F3 LGR4 antibodies are shown below in Table 5.” left out

[11] = biological target: T1, recombinant human LGR4 …; experiment: BLI (Octet QK), biotinylated antibody on streptavidin tips, LGR4-Fc in solution; receptor printed 'Human LGR4' a second time for 8F3, possibly mouse LGR4
Procedure: as §1
as §2, with “Sample curve fits, kinetic rate constants, and KD for 1C5 and 8F3 LGR4 antibodies are shown below in Table 5.” left out

[12] = biological target: T1, recombinant human LGR4 …; experiment: ELISA, plate coated with 2 or 1 ug/mL hLGR4-Fc, detected with HRP anti-human IgG-CH1
Procedure: (§5) Binding of the humanized anti-LGR4 antibodies 1C5HE and 1C5HG to human and LGR4 was assessed in vitro using an ELISA-based plate binding assay. The assay measured antibody binding to ELISA plate-bound purified recombinant LGR4 ectodomain-IgG-Fc fusion (R&D Systems), with detection of LGR4-bound antibody with horseradish peroxidase-conjugated anti-human IgG-CH1 secondary antibody.

[13] = biological target: T1, recombinant human LGR4 …; experiment: ELISA, plate coated with 2 ug/mL hLGR4-Fc, detected with HRP anti-human IgG-CH1
Procedure: as §5

Kd [1]: 1.47 nM
Kd [2]: 1.31 nM
kon [3]: 438000 M⁻¹ s⁻¹
kon [4]: 339000 M⁻¹ s⁻¹
EC50 (read off the curve) [5]: ~0.1 nM
EC50 (read off the curve) [6]: ~0.2 nM
EC50 (read off the curve) [7]: ~0.1 nM
koff [8]: 0.000635 s⁻¹
B1: anti-LGR4 rat monoclonal antibody 1C5 (antibody, V domains shown)
VH: QVQLQQSGAELVKPGSSVKISCKASGYTFTSNFMHWIKQQPGNGPEWIGWIYPGDGDTEYNQKFNGKATLIADKSSTTAYMQLRSLTSEDSAVYFCARGNSGYNWFAYWGQGTLVTVSS
VL: DIQMTQSPPVLSASVGDRVTLSCKASQNINKNLDWYQQKHGEAPRLLIYYTNNLQTGIPSRFSGSGSGTDYTLTISSLQPEDVATYFCYQYKSGNTFGAGTKLELK
notes: Rat monoclonal antibody purified from hybridoma supernatant; also called 1C5 mAb; biotinylated 1C5

EC50 (read off the curve) [9]: ~0.2 nM
Kd [1]: 0.47 nM
kon [3]: 397000 M⁻¹ s⁻¹
EC50 (read off the curve) [5]: ~0.1 nM
Kd [10]: 0.47 nM
kon [11]: 357000 M⁻¹ s⁻¹
EC50 (read off the curve) [7]: ~0.08 nM
B2: anti-LGR4 rat monoclonal antibody 8F3 (antibody, V domains shown)
VH: B1 VH with N32Y, M34I, P45L, L70F, T77S, Y80D, R84N, G99S, N100K, G102A
VL: B1 VL with Q37H, R45K, T74I, F87Y, K92N, N95P, A99T
notes: Rat monoclonal antibody purified from hybridoma supernatant; also called 8F3 mAb; biotinylated 8F3

binding result [12]: binds
B3: humanized anti-LGR4 antibody 1C5HG (antibody, human IgG1, V domains shown)
VH: EVQLVQSGAEVKKPGESLKISCKGSGYTFTSNFMHWVRQMPGKGLEWIGWIYPGDGDTEYNQKFNGKVTISADKSISTAYLQWSSLKASDTAMYYCARGNSGYNWFAYWGQGTTVTVSS
VL: EIVMTQSPATLSVSPGERATLSCKASQNINKNLDWYQQKPGQAPRLLIYYTNNLQTGIPARFSGSGSGTEFTLTISSLQSEDFAVYYCYQYKSGNTFGQGTKLEIK
notes: VH fused to the human IgG1 constant region, VL fused to the human kappa constant region; recombinant IgG from HEK 293 cells

EC50 (read off the curve) [13]: ~2 nM
B4: humanized anti-LGR4 antibody 1C5HE (antibody, human IgG1, V domains shown)
VH: QVQLVQSGAEVKKPGASVKVSCKASGYTFTSNFMHWVRQAPGQGLEWIGWIYPGDGDTEYNQKFNGKVTMTRDTSTSTVYMELSSLRSEDTAVYYCARGNSGYNWFAYWGQGTTVTVSS
VL: B3 VL
notes: as for B3
